Article PMC6080896

Biological target: Venus-tagged CaV1.1 CI (Ven-CaV1.1 CI) (UniProt P07293)
Test: FRET or BRET

Chain of Cer-tagged stac3 variant L[111]Δ (natural protein) (Q96MF2 whole entry, stated change not applied): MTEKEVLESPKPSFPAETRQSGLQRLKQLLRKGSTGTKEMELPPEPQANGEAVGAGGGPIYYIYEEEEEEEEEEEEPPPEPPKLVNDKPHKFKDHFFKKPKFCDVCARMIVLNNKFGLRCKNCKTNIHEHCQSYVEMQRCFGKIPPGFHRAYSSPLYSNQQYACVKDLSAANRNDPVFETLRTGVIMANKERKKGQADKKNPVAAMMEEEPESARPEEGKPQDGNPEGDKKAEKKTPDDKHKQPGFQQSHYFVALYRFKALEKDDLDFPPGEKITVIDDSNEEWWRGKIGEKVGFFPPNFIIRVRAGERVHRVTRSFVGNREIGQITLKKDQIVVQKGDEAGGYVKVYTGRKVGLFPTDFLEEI
Chain of Cer-tagged stac3 variant W[284]S (Native American myopathy) (natural protein) (Q96MF2 whole entry, change not shown): as the sequence (Q96MF2 whole entry, stated change not applied) above
Chain of Cer-tagged stac3 variant K[288]* (domain or fragment) (Q96MF2 whole entry, change not shown, the tested form may be a part): as the sequence (Q96MF2 whole entry, stated change not applied) above

| fold weakening of affinity against WT stac3 [fold] | Substance | other results |
| --- | --- | --- |
| 10 | Cer-tagged stac3 variant L[111]Δ (natural protein) |  |
|  | Cer-tagged stac3 (wild type) (natural protein) | Kd: 400 nM |
| 10 | Cer-tagged stac3 variant W[284]S (Native American myopathy) (natural protein) |  |
|  | Cer-tagged stac3 variant K[288]* (domain or fragment) | fold reduction of binding against WT stac3: 2 fold |
